This is an account of results in patent publication US20040116336A1 (TAKADA PHARMACEUTICAL, published 2004).

Where two headings read alike, the source gives them in different places. Starred links: 1 amine or outer side, 2 acyl side, 3 side chain; linkers in the order of their positions; H or OH if unused. Non-standard residues stand in square brackets, D forms with d. No end group written: not given here. Pyn = 1-pyrenylalanine, O=C([C@H](Cc1ccc2ccc3cccc4ccc1c2c34)N[*:1])[*:2]; Phe(4-Cl) = N[C@@H](Cc1ccc(Cl)cc1)C(=O)O; Lys(Me2) = CN(C)CCCC[C@H](N)C(=O)O; Cha = N[C@@H](CC1CCCCC1)C(=O)O

The target of test [1] is T1, APJ (orphan G protein-coupled receptor protein).
T1 chain: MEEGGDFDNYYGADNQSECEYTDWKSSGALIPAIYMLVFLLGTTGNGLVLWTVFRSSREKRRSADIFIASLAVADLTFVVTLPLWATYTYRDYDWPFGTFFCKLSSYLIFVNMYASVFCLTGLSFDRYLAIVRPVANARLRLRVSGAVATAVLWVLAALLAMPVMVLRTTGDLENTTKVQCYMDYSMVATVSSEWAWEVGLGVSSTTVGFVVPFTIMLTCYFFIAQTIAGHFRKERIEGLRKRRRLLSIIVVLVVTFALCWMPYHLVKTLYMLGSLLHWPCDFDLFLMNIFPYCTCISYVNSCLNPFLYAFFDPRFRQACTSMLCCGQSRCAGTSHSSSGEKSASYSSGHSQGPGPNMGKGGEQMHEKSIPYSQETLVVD
As to the kind of experiment: radioligand competition, 125I-labelled compound of Ref. Ex. 1 (100 pM), CHO-A10 membrane fraction. Background: Loss of bound radioactivity is the signal in a displacement assay; it reports binding, not function.

Test [2] deals with T1, APJ (orphan G protein-coupled receptor …). As to the kind of experiment: cell-based or functional assay.
For test [3] the target is unchanged. As to the kind of experiment: radioligand competition, compound of Ref. Ex. 2 as labelled ligand, CHO-A10 membrane fraction.
Test [4] has the same target. The description is as above.
The target is the same in test [5]. As to the kind of experiment: cell-based or functional assay.
The target is the same in test [6]. As to the kind of experiment: radioligand competition, 125I-labelled compound of Ref. Ex. 1 (100 pM), CHO-A10 membrane fraction. Here is the method: This product was mixed with an equal volume of an assay buffer (50 mM Tris-HCl/pH 7.5, 5 mM EDTA, 0.5 mM PMSF, 20 μg/ml leupeptin, 0.1 μg/ml pepstatin A, 4 μg/ml E-64 (Peptide Research Laboratory, Co.), 0.1% bovine serum albumin) and stored at −30° C. before use.
CHO-A10 cells were cultured, recovered with PBS containing 5 mM EDTA from a culture vessel, and suspended in the above-mentioned assay buffer not containing bovine serum albumin. The cells were homogenized 3 times at 12,000 rpm for 15 seconds by a Polytron homogenizer (manufactured by Kinematica Inc.) and then centrifuged (1000×g, 4° C., 10 minutes), and the supernatant was recovered. The precipitates were subjected again to the same procedure as above, and the respective supernatants were combined and centrifuged at 100,000×g, 4° C. for 1 hour, to recover precipitates (membrane fraction). The membrane fraction was suspended again in a small amount of the buffer, homogenized with a Teflon homogenizer and stored at −80° C. before use.
Binding assay was carried out under the following conditions. […] containing 0.25 μg of the membrane fraction, the ¹²⁵I-labeled compound at a final concentration of 100 pM, a test sample and an assay buffer were put onto each well of a 96-well polypropylene plate, and incubated at room temperature for 1.5 hours. Measurement of non-specific binding was carried out using a well containing 1 μM unlabeled compound in place of the test sample. After the incubation was finished, a cell harvester (Packard) adapted to 96 wells and a filter unit (GF/C, Packard) were used for separation thereby capturing the membrane fraction on the filter. After the filter was sufficiently dried, Microcinti 0 (Packard) was added thereto, and using Top Count (Packard), the amount of the labeled material captured together with the membrane fraction on the filter was measured.

The target is the same in test [7]. Kind of test: radioligand competition, compound of Ref. Ex. 2 as labelled ligand, CHO-A10 membrane fraction.
Test [8] has the same target. Kind of test: cell-based or functional assay.

As usually defined, the IC50 is the concentration needed to halve the response being measured. Read a low IC50 as inhibition by little substance. Consider RPRLSARGP[Cha][Pyn] (not fully specified; printed as Arg-Pro-Arg-Leu-Ser-Ala-Arg-Gly-Pro-Cha-Pyn, also called Compound in Ex. 60) [Arg-Pro-Arg-Leu-Ser-Ala-Arg-Gly-Pro-Cha-Pyn], for which the IC50 in test [1] was 1.1 nM; in test [3] it was 0.8 nM. For the same molecule, in test [2], the “EC50, inhibition of forskolin-stimulated cAMP production (CHO-A10 clone 6 cells)” value (“EC50, inhibition” below) turned out to be 1.1 nM.

With RPRLSARGPMPF (also called Compound in Ex. 24) [Arg-Pro-Arg-Leu-Ser-Ala-Arg-Gly-Pro-Met-Pro-Phe], the IC50 came to 0.057 nM in test [4] and 27 nM in test [6]. In addition, the “EC50, inhibition” value in test [5] turned out to be 0.25 nM.

On to RRARPRLSHKGPMPF (also called Compound in Ex. 25) [Arg-Arg-Ala-Arg-Pro-Arg-Leu-Ser-His-Lys-Gly-Pro-Met-Pro-Phe], for which the results for the IC50 in test [4] and in test [6] were 0.067 nM and 34 nM, respectively. Moreover, the “EC50, inhibition” value in test [5] stood at 0.25 nM.

On to RRKRPRLSHKGPMPF (also called Compound in Ex. 23) [Arg-Arg-Lys-Arg-Pro-Arg-Leu-Ser-His-Lys-Gly-Pro-Met-Pro-Phe], for which the values for the IC50 in test [4] and in test [6] were 0.09 nM and 9.2 nM, respectively. For the same molecule, the “EC50, inhibition” value in test [5] came to 0.31 nM.

Consider RRRRPRLSHKGPMPF [Arg-Arg-Arg-Arg-Pro-Arg-Leu-Ser-His-Lys-Gly-Pro-Met-Pro-Phe], for which, in test [5], the “EC50, inhibition” value turned out to be 0.32 nM.

With RPRLFARGPMF (also called Compound in Ex. 47) [Arg-Pro-Arg-Leu-Phe-Ala-Arg-Gly-Pro-Met-Phe], the IC50 in test [4] worked out at 1.8 nM. The “EC50, inhibition” value in test [5] worked out at 0.36 nM.

RPRLSARGPM (also called Compound in Ex. 27) [Arg-Pro-Arg-Leu-Ser-Ala-Arg-Gly-Pro-Met] registered an IC50 in test [4] of 0.11 nM.

Take RRQRPRLSARGP [Arg-Arg-Gln-Arg-Pro-Arg-Leu-Ser-Ala-Arg-Gly-Pro]: the “EC50, inhibition” value in test [5] was 0.26 nM.

Molecule RPRLFARGPMPF (also called Compound in Ex. 31) [Arg-Pro-Arg-Leu-Phe-Ala-Arg-Gly-Pro-Met-Pro-Phe] showed an IC50 in test [4] of 0.27 nM. Besides, the “EC50, inhibition” value in test [5] was 0.14 nM.

Molecule RRQRPRLSARGPMPF (also called Compound in Ex. 17) [Arg-Arg-Gln-Arg-Pro-Arg-Leu-Ser-Ala-Arg-Gly-Pro-Met-Pro-Phe] showed an IC50 in test [4] of 0.036 nM.

Consider RRQRPRLSARGPM (also called Compound in Ex. 18) [Arg-Arg-Gln-Arg-Pro-Arg-Leu-Ser-Ala-Arg-Gly-Pro-Met], for which the IC50 in test [4] is 0.023 nM; in test [6], 2.5 nM. In test [5], the “EC50, inhibition” value turned out to be 0.18 nM.

Take RPRLSA[Lys(Me2)]GPMPF (also called Compound in Ex. 64) [Arg-Pro-Arg-Leu-Ser-Ala-Lys(Me)2-Gly-Pro-Met-Pro-Phe]: the IC50 in test [1] was determined as 0.38 nM. In addition, in test [2], the “EC50, inhibition” value turned out to be 0.38 nM.

For RP[Lys(Me2)]LSARGPMPF (also called Compound in Ex. 63) [Arg-Pro-Lys(Me)2-Leu-Ser-Ala-Arg-Gly-Pro-Met-Pro-Phe], the values for the IC50 in test [1] and in test [3] were 0.33 nM and 0.074 nM, respectively. Besides, the “EC50, inhibition” value in test [2] was 0.33 nM.

RPRLSHKGPMP[Phe(4-Cl)] (also called Compound in Ex. 8) [Arg-Pro-Arg-Leu-Ser-His-Lys-Gly-Pro-Met-Pro-Phe(Cl)]: the IC50 in test [6] was 13 nM; in test [7], 0.039 nM. In addition, the “EC50, inhibition” value in test [8] came to 0.34 nM.

B1: Arg-Arg-Gln-Arg-Pro-Arg-Leu-Ser-Ala-Arg-Gly-Gly-Cha (peptide)
peptide: RRQRPRLSARGG[Cha]
modifications: not fully specified; printed as Arg-Arg-Gln-Arg-Pro-Arg-Leu-Ser-Ala-Arg-Gly-Gly-Cha
notes: also called Compound in Ex. 62
Take B1: the IC50 in test [1] was 0.23 nM; in test [3], 0.14 nM. For the same molecule, the “EC50, inhibition” value in test [2] stood at 0.23 nM.

Consider RPRLSARGP[Cha]P[Pyn] (not fully specified; printed as Arg-Pro-Arg-Leu-Ser-Ala-Arg-Gly-Pro-Cha-Pro-Pyn, also called Compound in Ex. 61) [Arg-Pro-Arg-Leu-Ser-Ala-Arg-Gly-Pro-Cha-Pro-Pyn], for which the IC50 in test [1] was found to be 2.2 nM; in test [3], 0.56 nM. Also, the “EC50, inhibition” value in test [2] was determined as 2.2 nM.

Take RRFRPRLSHKGPMPF (also called Compound in Ex. 33) [Arg-Arg-Phe-Arg-Pro-Arg-Leu-Ser-His-Lys-Gly-Pro-Met-Pro-Phe]: the IC50 in test [4] is 0.37 nM. In addition, the “EC50, inhibition” value in test [5] came out at 1.1 nM.
